Experimental data published in patent US20250327097A1, “ORGANISMS PRODUCING LESS CROTONIC ACID” (Global Bioenergies, priority 2021, published 2025).

B1: P284E-N287Q-L289R-S322T-N388M-K394R-C430N-L432F-L434W-S436N-dA463 (protein)
chain: MFLKSLREQINLLKRQGDLRIINRPVDSYLEAAAIIRRSTETKAPVPLMTNIKGYPGCSIVGGLAALSSNPEYPLSRVAMSLGLSTTASAQSIVQYLIDGLKKTPYLPVEIDSNSAPCKQNILRGEDASLAHFPIPQVHQHDGNRYVNTWGVFIVESPDGQWCNWSIQRVQYLNDRQMIALVFPSQHISDIWEEWVKIGKPMPYALVQGCEPIVPYIAGLPLLERNVNEAEYIGALYGKGIEVVKCETHDLRVPASSEVVIEGYFAITREGVEGPFGEFAGYIENEQSRQPILSITAISWQDDPIWPVVAEGKPVDEYHTCTGIGDAAAIQNVLLTANLPVSFVWVPLYSACHLMIVSINRHWRQTHPDLTSEQLTKKVGDVIHQTRMSIKLPRIVVLDDDVDPADTESLLWALATRIHPERKRYFYESNIFPWLNCYSEEERHNRKGKRVIIDALLPENHGAISSFDYAYPDDIKQRVLMHWETDFSHD
B2: P284E-N287Q-S322T-N388M-K394R-R422H-C430N-L432F-L434W-S436N-dA463 (protein)
chain: MFLKSLREQINLLKRQGDLRIINRPVDSYLEAAAIIRRSTETKAPVPLMTNIKGYPGCSIVGGLAALSSNPEYPLSRVAMSLGLSTTASAQSIVQYLIDGLKKTPYLPVEIDSNSAPCKQNILRGEDASLAHFPIPQVHQHDGNRYVNTWGVFIVESPDGQWCNWSIQRVQYLNDRQMIALVFPSQHISDIWEEWVKIGKPMPYALVQGCEPIVPYIAGLPLLERNVNEAEYIGALYGKGIEVVKCETHDLRVPASSEVVIEGYFAITREGVEGPFGEFAGYIENEQSLQPILSITAISWQDDPIWPVVAEGKPVDEYHTCTGIGDAAAIQNVLLTANLPVSFVWVPLYSACHLMIVSINRHWRQTHPDLTSEQLTKKVGDVIHQTRMSIKLPRIVVLDDDVDPADTESLLWALATRIHPEHKRYFYESNIFPWLNCYSEEERHNRKGKRVIIDALLPENHGAISSFDYAYPDDIKQRVLMHWETDFSHD
B3: P284E-N287Q-S322T-N388M-K394R-C430N-L432F-L434W-S436N-dA463-A470T (protein)
chain: MFLKSLREQINLLKRQGDLRIINRPVDSYLEAAAIIRRSTETKAPVPLMTNIKGYPGCSIVGGLAALSSNPEYPLSRVAMSLGLSTTASAQSIVQYLIDGLKKTPYLPVEIDSNSAPCKQNILRGEDASLAHFPIPQVHQHDGNRYVNTWGVFIVESPDGQWCNWSIQRVQYLNDRQMIALVFPSQHISDIWEEWVKIGKPMPYALVQGCEPIVPYIAGLPLLERNVNEAEYIGALYGKGIEVVKCETHDLRVPASSEVVIEGYFAITREGVEGPFGEFAGYIENEQSLQPILSITAISWQDDPIWPVVAEGKPVDEYHTCTGIGDAAAIQNVLLTANLPVSFVWVPLYSACHLMIVSINRHWRQTHPDLTSEQLTKKVGDVIHQTRMSIKLPRIVVLDDDVDPADTESLLWALATRIHPERKRYFYESNIFPWLNCYSEEERHNRKGKRVIIDALLPENHGAISSFDYTYPDDIKQRVLMHWETDFSHD
B4: P284E-N287Q-S322T-N388M-K394R-C430N-L432F-L434W-S436N-dA463-A470S (protein)
chain: MFLKSLREQINLLKRQGDLRIINRPVDSYLEAAAIIRRSTETKAPVPLMTNIKGYPGCSIVGGLAALSSNPEYPLSRVAMSLGLSTTASAQSIVQYLIDGLKKTPYLPVEIDSNSAPCKQNILRGEDASLAHFPIPQVHQHDGNRYVNTWGVFIVESPDGQWCNWSIQRVQYLNDRQMIALVFPSQHISDIWEEWVKIGKPMPYALVQGCEPIVPYIAGLPLLERNVNEAEYIGALYGKGIEVVKCETHDLRVPASSEVVIEGYFAITREGVEGPFGEFAGYIENEQSLQPILSITAISWQDDPIWPVVAEGKPVDEYHTCTGIGDAAAIQNVLLTANLPVSFVWVPLYSACHLMIVSINRHWRQTHPDLTSEQLTKKVGDVIHQTRMSIKLPRIVVLDDDVDPADTESLLWALATRIHPERKRYFYESNIFPWLNCYSEEERHNRKGKRVIIDALLPENHGAISSFDYSYPDDIKQRVLMHWETDFSHD
B5: P284E-N287Q-S322T-N388M-K394R-C430N-L432F-L434W-S436N-dA463-Y469E (protein)
chain: MFLKSLREQINLLKRQGDLRIINRPVDSYLEAAAIIRRSTETKAPVPLMTNIKGYPGCSIVGGLAALSSNPEYPLSRVAMSLGLSTTASAQSIVQYLIDGLKKTPYLPVEIDSNSAPCKQNILRGEDASLAHFPIPQVHQHDGNRYVNTWGVFIVESPDGQWCNWSIQRVQYLNDRQMIALVFPSQHISDIWEEWVKIGKPMPYALVQGCEPIVPYIAGLPLLERNVNEAEYIGALYGKGIEVVKCETHDLRVPASSEVVIEGYFAITREGVEGPFGEFAGYIENEQSLQPILSITAISWQDDPIWPVVAEGKPVDEYHTCTGIGDAAAIQNVLLTANLPVSFVWVPLYSACHLMIVSINRHWRQTHPDLTSEQLTKKVGDVIHQTRMSIKLPRIVVLDDDVDPADTESLLWALATRIHPERKRYFYESNIFPWLNCYSEEERHNRKGKRVIIDALLPENHGAISSFDEAYPDDIKQRVLMHWETDFSHD
B6: P284E-N287Q-S322T-N388M-K394R-C430N-L432F-L434W-S436N-G462R-dA463 (protein)
chain: MFLKSLREQINLLKRQGDLRIINRPVDSYLEAAAIIRRSTETKAPVPLMTNIKGYPGCSIVGGLAALSSNPEYPLSRVAMSLGLSTTASAQSIVQYLIDGLKKTPYLPVEIDSNSAPCKQNILRGEDASLAHFPIPQVHQHDGNRYVNTWGVFIVESPDGQWCNWSIQRVQYLNDRQMIALVFPSQHISDIWEEWVKIGKPMPYALVQGCEPIVPYIAGLPLLERNVNEAEYIGALYGKGIEVVKCETHDLRVPASSEVVIEGYFAITREGVEGPFGEFAGYIENEQSLQPILSITAISWQDDPIWPVVAEGKPVDEYHTCTGIGDAAAIQNVLLTANLPVSFVWVPLYSACHLMIVSINRHWRQTHPDLTSEQLTKKVGDVIHQTRMSIKLPRIVVLDDDVDPADTESLLWALATRIHPERKRYFYESNIFPWLNCYSEEERHNRKGKRVIIDALLPENHRAISSFDYAYPDDIKQRVLMHWETDFSHD
B7: P284E-N287Q-S322T-N388M-K394R-C430N-L432F-L434W-S436N-dA463-S465A (protein)
chain: MFLKSLREQINLLKRQGDLRIINRPVDSYLEAAAIIRRSTETKAPVPLMTNIKGYPGCSIVGGLAALSSNPEYPLSRVAMSLGLSTTASAQSIVQYLIDGLKKTPYLPVEIDSNSAPCKQNILRGEDASLAHFPIPQVHQHDGNRYVNTWGVFIVESPDGQWCNWSIQRVQYLNDRQMIALVFPSQHISDIWEEWVKIGKPMPYALVQGCEPIVPYIAGLPLLERNVNEAEYIGALYGKGIEVVKCETHDLRVPASSEVVIEGYFAITREGVEGPFGEFAGYIENEQSLQPILSITAISWQDDPIWPVVAEGKPVDEYHTCTGIGDAAAIQNVLLTANLPVSFVWVPLYSACHLMIVSINRHWRQTHPDLTSEQLTKKVGDVIHQTRMSIKLPRIVVLDDDVDPADTESLLWALATRIHPERKRYFYESNIFPWLNCYSEEERHNRKGKRVIIDALLPENHGAIASFDYAYPDDIKQRVLMHWETDFSHD
B8: N388M-K394R-C430A-L432F-L434W-S436N (protein)
chain: MFLKSLREQINLLKRQGDLRIINRPVDSYLEAAAIIRRSTETKAPVPLMTNIKGYPGCSIVGGLAALSSNPEYPLSRVAMSLGLSTTASAQSIVQYLIDGLKKTPYLPVEIDSNSAPCKQNILRGEDASLAHFPIPQVHQHDGNRYVNTWGVFIVESPDGQWCNWSIQRVQYLNDRQMIALVFPSQHISDIWEEWVKIGKPMPYALVQGCEPIVPYIAGLPLLERNVNEAEYIGALYGKGIEVVKCETHDLRVPASSEVVIEGYFAITREGVEGPFGEFAGYIPNENSLQPILSITAISWQDDPIWPVVAEGKPVDEYHTCSGIGDAAAIQNVLLTANLPVSFVWVPLYSACHLMIVSINRHWRQTHPDLTSEQLTKKVGDVIHQTRMSIKLPRIVVLDDDVDPADTESLLWALATRIHPERKRYFYESAIFPWLNCYSEEERHNRKGKRVIIDALLPENHGAISSFDYAYPDDIKQRVLMHWETDFSHD
B9: P284E-N287Q-S322T-N388M-K394R-C430N-L432F-L434W-S436N-dA463-Y469T (protein)
chain: MFLKSLREQINLLKRQGDLRIINRPVDSYLEAAAIIRRSTETKAPVPLMTNIKGYPGCSIVGGLAALSSNPEYPLSRVAMSLGLSTTASAQSIVQYLIDGLKKTPYLPVEIDSNSAPCKQNILRGEDASLAHFPIPQVHQHDGNRYVNTWGVFIVESPDGQWCNWSIQRVQYLNDRQMIALVFPSQHISDIWEEWVKIGKPMPYALVQGCEPIVPYIAGLPLLERNVNEAEYIGALYGKGIEVVKCETHDLRVPASSEVVIEGYFAITREGVEGPFGEFAGYIENEQSLQPILSITAISWQDDPIWPVVAEGKPVDEYHTCTGIGDAAAIQNVLLTANLPVSFVWVPLYSACHLMIVSINRHWRQTHPDLTSEQLTKKVGDVIHQTRMSIKLPRIVVLDDDVDPADTESLLWALATRIHPERKRYFYESNIFPWLNCYSEEERHNRKGKRVIIDALLPENHGAISSFDTAYPDDIKQRVLMHWETDFSHD
B10: I283T-N285P-E286D-N287T-Q290E-S322T-N388M-K394R-C430A-L432F-L434W-S436N-G462P-A463P (protein)
chain: MFLKSLREQINLLKRQGDLRIINRPVDSYLEAAAIIRRSTETKAPVPLMTNIKGYPGCSIVGGLAALSSNPEYPLSRVAMSLGLSTTASAQSIVQYLIDGLKKTPYLPVEIDSNSAPCKQNILRGEDASLAHFPIPQVHQHDGNRYVNTWGVFIVESPDGQWCNWSIQRVQYLNDRQMIALVFPSQHISDIWEEWVKIGKPMPYALVQGCEPIVPYIAGLPLLERNVNEAEYIGALYGKGIEVVKCETHDLRVPASSEVVIEGYFAITREGVEGPFGEFAGYTPPDTSLEPILSITAISWQDDPIWPVVAEGKPVDEYHTCTGIGDAAAIQNVLLTANLPVSFVWVPLYSACHLMIVSINRHWRQTHPDLTSEQLTKKVGDVIHQTRMSIKLPRIVVLDDDVDPADTESLLWALATRIHPERKRYFYESAIFPWLNCYSEEERHNRKGKRVIIDALLPENHPPISSFDYAYPDDIKQRVLMHWETDFSHD

system: 3-methylcrotonic acid; format: biochemical, Yersinia frederiksenii; parameters: key: “+” representing a low increase in activity; “++++” representing a high increase in activity

**Q.** Which “Activity relative to WT” value does the source give for B1 here?
**A.** ++++

**Q.** Which “Activity relative to WT” value does the source give for B2 here?
**A.** ++++

**Q.** For B3, which “Activity relative to WT” value is on record?
**A.** ++++

**Q.** B4 was tested. Which “Activity relative to WT” value did it give?
**A.** ++++

**Q.** With B5 as the molecule, how does the “Activity relative to WT” value read?
**A.** ++++

**Q.** Which “Activity relative to WT” value does the source give for B6 here?
**A.** ++++

**Q.** B7 was tested. Which “Activity relative to WT” value did it give?
**A.** ++++

**Q.** B8 was tested. Which “Activity relative to WT” value did it give?
**A.** +

**Q.** Which “Activity relative to WT” value does the source give for B9 here?
**A.** ++++

**Q.** With B10 as the molecule, how does the “Activity relative to WT” value read?
**A.** ++++
